Source: US5731326A, “PDGF antagonists II” (ZymoGenetics, Inc., priority 1996, dated 1998)

How the values were obtained:
[1] = system: baboon smooth muscle cells; experiment: Inhibition of PDGF-BB mitogenic activity on baboon smooth muscle cells ([3H] thymidine incorporation); type: cell-based; details: vehicle 74
Procedure: NNC92-0270 was analyzed for the ability to inhibit the mitogenic activity of PDGF on baboon smooth muscle cells. All mitogenesis assays performed on baboon vascular smooth muscle cells (BVSMCs) were done on primary cultures of cells between passages 13 and 20 in culture. The initial cultures were established from outgrowth of aortic tissue explants. Baboon smooth muscle cells were plated at approximately 20,000 cells per well, in DMEM supplemented with 10% fetal calf serum, into 24-well culture dishes. One day prior to use the culture media was removed, and 1 ml of Mito Media (Table 5) was added to each well to allow the cells to become quiescent. At the time of the experiment the cells were stimulated with PDGF-BB. […] 20× stock solutions were made for each of the PDGF concentrations by dilution in 10 mM acetic acid containing 0.25% albumin, and 50 ul PDGF or dilution vehicle alone was added to the culture wells.
To analyze the activity of NNC92-0270 to neutralize PDGF-BB mitogenic activity, 1 ng/ml of PDGF was added to wells along with dilutions of NNC92-0270. The cells were incubated with the test samples for approximately 20 hours at 37 ° C. Fifty microliters of a 20× stock solution of [3H] Thymidine was then added to each well to give a final concentration of 1 μCi/ml. The cells were incubated for 4 hours at 37 ° C., washed with PBS, then harvested with trypsin and counted for [^3 H] thymidine incorporation in a Wallac (Turku, Finland) Betaplate™ liquid scintillation counter.
NNC92-0270 was incubated with 1 ng/ml of PDGF-BB in the presence of 0.5 U/ml of unfractionated heparin. The cells were pulse labeled with [^3 H] thymidine as described above and the level of [^3 H] thymidine determined.

[2] = system: baboon smooth muscle cells; experiment: Wash-out study of PDGF-BB mitogenic activity on baboon smooth muscle cells; type: cell-based; details: T = -24 hrs 0.5% DMSO; T = 0 hrs PDGF-BB (1 ng/ml); mean +/- SD; vehicle only 164 +/- 10
Procedure: NNC92-0270 was analyzed for prolonged inhibitory effect on PDGF-BB mitogenic activity on baboon smooth muscle cells in a wash-out experiment. Baboon SMCs were plated at 20,000 cells per well in a 24-well culture dish and grown for 2 days. The culture media was removed and replaced with Mito Media (Table 5) to allow the cells to become quiescent. The experiment was set up such that cells were treated with NNC92-0270 or vehicle control (0.5% DMSO) for either 24 hours prior to the addition of PDGF-BB, or sequentially with the addition of PDGF-BB. Those cells initially treated with NNC92-0270 or control vehicle for 24 hours, were washed with Mito Media to remove the test compound and then incubated with PDGF-BB (1 ng/ml) for an additional 24 hours. A second set of cells was treated with NNC92-0270 or vehicle control simultaneously with PDGF-BB for 24 hours. The cells were pulse labeled for 4 hours with [^3 H] thymidine (1 μCi/ml final) harvested with trypsin and counted in a Wallac Betaplate counter to determine CPM for [^3 H] thymidine incorporation.
Acetic acid (10 mM) was used as the PDGF-BB vehicle control and 0.5% DMSO was used as the test compound control.

B1: PDGF-BB: platelet derived growth factor BB, mitogenic stimulus used for the standard curve (protein, UniProt P01127 82-190, looked up)
Platelet-derived growth …: SLGSLTIAEPAMIAECKTRTEVFEISRRLIDRTNANFLVWPPCVEVQRCSGCCNNRNVQCRPTQVQLRPVQVRKIEIVRKKPIFKKATVTLEDHLACKCETVAAARPVT
modifications: homodimer
notes: platelet derived growth factor BB, mitogenic stimulus used for the standard curve
3H Thymidine (CPM Incorporated), PDGF-BB standard curve ([1]; PDGF-BB 0.062 ng/ml): 120 CPM
3H Thymidine (CPM Incorporated), PDGF-BB standard curve ([1]; PDGF-BB 0.125 ng/ml): 226 CPM
3H Thymidine (CPM Incorporated), PDGF-BB standard curve ([1]; PDGF-BB 0.25 ng/ml): 392 CPM
3H Thymidine (CPM Incorporated), PDGF-BB standard curve ([1]; PDGF-BB 0.5 ng/ml): 959 CPM
3H Thymidine (CPM Incorporated), PDGF-BB standard curve ([1]; PDGF-BB 1 ng/ml): 1701 CPM
[3H] Thymidine Incorporation (cpm) [2]: 6370 +/- 1303 cpm
